This passage reports inhibition of the cleavage of AMC substrates by human recombinant caspases (cross-reaction) results from patent US20090042805A1.

Bounds are passed on as bounds.

The target of the assay is other caspases. Put plainly: cell-based or functional assay.

For the molecule Ac-VDVAD-aldehyde [Ac-VDVAD-cho], the inhibition of the cleavage of AMC substrates by human recombinant caspases (cross-reaction) is below 20%.
